Experimental data as given in the RNAGym collection of RNA variant scans (doi:10.1093/molbev/msab373).

B1: Azoarcus group I ribozyme (parent)
chain: GUGCCUUGCGCCGGGAAACCACGCAAGGGAUGGUGUCAAAUUCGGCGAAACCUAAGCGCCCGCCCGGGCGUAUGGCAACGCCGAGCCAAGCUUCGGCGCCUGCGCCGAUGAAGGUGUAGAGACUAGACGGCACCCACCUAAGGCAAACGCUAUGGUGAAGGCAUAGUCCAGGGAGUGGCGAAAGUCACACAAACCGG

Variants of: B1
Experiment: reverse-splicing fitness (ratio to wild type); higher = more active; in vitro selection; Mg2+ level not given
How it was run: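 An in vitro group I ribozyme library with randomized positions was T7-transcribed and gel-purified. In triplicate, 10 pmol RNA in EPPS pH 7.5 was reacted with 50 pmoles of a 30-nt RNA substrate for 1 h at 37 °C across several added MgCl2 levels (1–48 mM), then stopped with EDTA. Products were reverse transcribed from a substrate-complementary primer, PCR-amplified and sequenced (HiSeq 4000). Fitness is a variant's read proportion after selection over that before, normalised to wild type.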

Variant | reverse-splicing fitness
C82U A111G A120U A145C C150A C169G U176A | 0.00205
C82U A111G A120U A145C C150A C169G U176G | 0.0017
C82U A111G A120G A145C C150U C169G | 0.00844
C82U A111G A120G A145C C150U C169A | 0.0078
C82U A111G A120G A145C C150U C169U | 0.00745
C82U A111G A120C C169A U176A | 0.014
C82U A111G A120C C169A U176C | 0.0132
C82U A111G A120C C169A U176G | 0.00425
C82U A111G A120G C150U C169U U176A | 0.0221
C82U A111G A120G C150U C169U U176C | 0.015
C82U A111G A120G C150U C169U U176G | 0.00611
C82U A111G A120G A145C C150A C169A U176G | 0.00425
C82U A111G A120G A145C C150A C169A U176A | 0.0114
C82U A111G A120G A145C C150A C169A U176C | 0.00481
C82U A111G A120U A145C C150A C169G | 0.00197
C82U A111G A120U A145C C150A C169U | 0.00217
C82U A111G A120U A145C C150A C169A | 0.00199
C82U A111G A120U A145C C150G C169U | 0.00264
C82U A111G A120U A145C C150G C169G | 0.00252
C82U A111G A120U A145C C150G C169A | 0.00238
C82U A111G A120G C150G C169A U176A | 0.00933

Variant | reverse-splicing fitness
C82U A111G A120G C150G C169A U176G | 0.00628
C82U A111G A120G C150G C169A U176C | 0.0101
C82U A111G A120G A145G C150U | 0.0132
C82U A111G A120G A145G C150G | 0.00721
C82U A111G A120G A145G C150A | 0.00878
C82U A111G A120G C169U U176G | 0.00533
C82U A111G A120G C169U U176A | 0.023
C82U A111G A120G C169U U176C | 0.0174
C82U A111G A120G A145U C169A U176G | 0.00425
C82U A111G A120G A145U C169A U176A | 0.0102
C82U A111G A120G A145U C169A U176C | 0.00896
C82U A111G A120U A145C C150A C169U U176C | 0.00235
C82U A111G A120U A145C C150A C169U U176G | 0.00196
C82U A111G A120U A145C C150A C169U U176A | 0.00182
C82U A111G A120C C150U C169U | 0.0124
C82U A111G A120G A145G C150U C169A U176G | 0.00562
C82U A111G A120G A145G C150U C169A U176A | 0.0143
C82U A111G A120G A145G C150U C169A U176C | 0.0148
C82U A111G A120G C150U C169G U176C | 0.0174
C82U A111G A120G C150U C169G U176A | 0.0144
C82U A111G A120G C150U C169G U176G | 0.00447

Variant | reverse-splicing fitness
C82U A111G A120G A145C C150G C169G U176A | 0.00868
C82U A111G A120G A145C C150G C169G U176G | 0.00399
C82U A111G A120G A145C C150G C169G U176C | 0.00692
C82U A111G A120G A145C C150A C169U | 0.00634
C82U A111G A120G A145C C150A C169G | 0.00737
C82U A111G A120G A145C C150A C169A | 0.00777
C82U A111G A120G A145U C150G C169A U176G | 0.00391
C82U A111G A120G A145U C150G C169A U176C | 0.00917
C82U A111G A120G A145U C150G C169A U176A | 0.00905
C82U A111G A120G A145C U176G | 0.00368
C82U A111G A120G A145C U176A | 0.0105
C82U A111G A120G A145C U176C | 0.00983
C82U A111G A120G C150A C169U | 0.00735
C82U A111G A120G C150A C169A | 0.00997
C82U A111G A120G C150A C169G | 0.00939
C82U A111G A120C C169U | 0.0118
C82U A111G A120C C169A | 0.00806
C82U A111G A120C C169G | 0.00773
C82U A111G A120G A145G C169U | 0.011
C82U A111G A120G A145G C169A | 0.0117
C82U A111G A120G A145G C169G | 0.0129

Variant | reverse-splicing fitness
C82U A111G A120U A145C C150U U176G | 0.00212
C82U A111G A120U A145C C150U U176A | 0.00377
C82U A111G A120U A145C C150U U176C | 0.00518
C82U A111G A120G A145C C169U U176C | 0.0105
C82U A111G A120G A145C C169U U176A | 0.0189
C82U A111G A120G A145C C169U U176G | 0.00353
C82U A111G A120G A145U C150U C169A | 0.00925
C82U A111G A120G A145U C150U C169G | 0.0107
C82U A111G A120G A145U C150U C169U | 0.00963
C82U A111G A120C C150U C169G U176C | 0.0156
C82U A111G A120C C150U C169G U176A | 0.0205
C82U A111G A120C C150U C169G U176G | 0.00447
C82U A111G A120U A145C C150G C169G U176C | 0.00251
C82U A111G A120U A145C C150G C169G U176G | 0.00197
C82U A111G A120U A145C C150G C169G U176A | 0.00255
C82U A111G A120U A145C C150U C169U U176C | 0.00222
C82U A111G A120U A145C C150U C169U U176G | 0.00188
C82U A111G A120U A145C C150U C169U U176A | 0.00264
C82U A111G A120G A145U U176G | 0.00443
C82U A111G A120G A145U U176C | 0.0141
C82U A111G A120G A145U U176A | 0.0116
